Assay results taken from article PMC9800556, “Kinetics of DNA strand transfer between polymerase and proofreading exonuclease active sites regulates error correction during high-fidelity replication” (The Journal of Biological Chemistry, 2022).
Numbering of substitutions follows the chain as printed.

How the values were obtained:
[1] = biological target: T1, T7 DNA polymerase (T7 DNA pol; T7 gp5 + E. coli thioredoxin) (Escherichia phage T7, UniProt P00581); experiment: rapid-quench ssDNA excision, denaturing PAGE, global fit (KinTek Explorer); assay type: biochemical; conditions: read-out: Best fit
T1 construct: gene 5; wild-type exo-proficient (x+) gp5 catalytic subunit, purified as previously described, reconstituted with at least twofold molar excess of E. coli thioredoxin; with Thioredoxin 1
Description: rapid-quench ssDNA excision, denaturing PAGE, global fit (KinTek Explorer) on T7 DNA polymerase (T7 DNA pol; T7 gp5 + E. coli thioredoxin) | dCMP binds to the free enzyme, acting as a weak competitive inhibitor for ssDNA binding

[2] = biological target: T2, T7 DNA polymerase gp5 (wild-type, exo+);thioredoxin (accessory protein) (bacteriophage T7;Escherichia coli, UniProt P00581;P0AA25 1-704;2-109, |); experiment: stopped-flow fluorescence anisotropy, global fit (with tCo-27-PThio titration); 12.5 mM Mg2+; k1 1100 uM-1 s-1, k-1 44 s-1; exo site; T7 reaction buffer (composition and pH not given in the material), 12.5 mM Mg2+; 20 C stated for rapid-quench; conditions: protein: recombinant;recombinant; tags: ;; copies: 1;1; label: 5' 6-FAM; single strand
[3] = biological target: T2, T7 DNA polymerase gp5 (wild-type, …); experiment: equilibrium fluorescence titration (Trp-tCo FRET), quadratic fit; 2 uM thioredoxin; net Kd over pol, intermediate and exo sites; Mg2+ not stated for this titration; T7 reaction buffer (composition and pH not given in the material), 12.5 mM Mg2+; 20 C stated for rapid-quench; conditions: protein: recombinant;recombinant; tags: ;; copies: 1;1; label: tCo; primer/template, 18 nt template 5' overhang, 3'-terminal C:C mismatch
[4] = biological target: T2, T7 DNA polymerase gp5 (wild-type, …); experiment: equilibrium fluorescence titration (Trp-tCo FRET), quadratic fit; 12.5 mM Mg2+, 2 uM thioredoxin; net Kd over all sites; T7 reaction buffer (composition and pH not given in the material), 12.5 mM Mg2+; 20 C stated for rapid-quench; conditions: protein: recombinant;recombinant; tags: ;; copies: 1;1; label: tCo; primer/template, 18 nt template 5' overhang, A:A mismatch buried by one terminal C:G pair
[5] = biological target: T2, T7 DNA polymerase gp5 (wild-type, …); experiment: equilibrium fluorescence titration (Trp-tCo FRET), hyperbolic fit; 12.5 mM Mg2+; exo site; T7 reaction buffer (composition and pH not given in the material), 12.5 mM Mg2+; 20 C stated for rapid-quench; conditions: protein: recombinant;recombinant; tags: ;; copies: 1;1; label: tCo; single strand

T2 sequence (P00581 whole entry, chain 1 of 2): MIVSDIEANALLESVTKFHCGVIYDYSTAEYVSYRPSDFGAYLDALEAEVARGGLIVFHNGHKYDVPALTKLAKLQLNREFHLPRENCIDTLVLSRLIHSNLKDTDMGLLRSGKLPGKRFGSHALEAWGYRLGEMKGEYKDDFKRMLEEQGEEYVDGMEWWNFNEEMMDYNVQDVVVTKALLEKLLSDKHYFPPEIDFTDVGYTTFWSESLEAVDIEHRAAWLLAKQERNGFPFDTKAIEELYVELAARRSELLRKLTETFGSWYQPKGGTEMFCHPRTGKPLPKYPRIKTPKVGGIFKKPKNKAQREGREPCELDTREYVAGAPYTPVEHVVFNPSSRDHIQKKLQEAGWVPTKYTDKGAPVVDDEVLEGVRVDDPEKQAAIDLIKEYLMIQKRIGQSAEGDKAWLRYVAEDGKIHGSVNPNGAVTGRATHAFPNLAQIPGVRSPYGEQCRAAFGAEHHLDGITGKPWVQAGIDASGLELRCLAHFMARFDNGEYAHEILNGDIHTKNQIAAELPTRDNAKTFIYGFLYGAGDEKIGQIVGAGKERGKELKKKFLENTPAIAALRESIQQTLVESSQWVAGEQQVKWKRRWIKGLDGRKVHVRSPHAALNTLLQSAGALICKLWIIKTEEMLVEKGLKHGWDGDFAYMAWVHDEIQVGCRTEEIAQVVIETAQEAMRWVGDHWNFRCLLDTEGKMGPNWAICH
T2 sequence (P0AA25 2-109, chain 2 of 2): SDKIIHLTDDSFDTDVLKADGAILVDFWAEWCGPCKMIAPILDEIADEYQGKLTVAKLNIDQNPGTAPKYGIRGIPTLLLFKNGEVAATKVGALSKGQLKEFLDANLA
T1 sequence (P00581 whole entry): as the sequence (P00581 whole entry, chain 1 of 2) above
T1 sequence (P0AA25 2-109 partner): as the sequence (P0AA25 2-109, chain 2 of 2) above

## Nc1ccn([C@H]2C[C@H](O)[C@@H](COP(=O)(O)O)O2)c(=O)n1 [dCMP]
[1]
  Ki: 5650 µM

B1: FAM-27-PThio (ssDNA)
DNA: CCGTCGCAGCCGTCCAACCAACTACAC
modifications: Sp phosphorothioate at the 3'-terminal linkage (A*C)
[2]
  Kd: 0.04 ± 0.0014 µM

B2: tCo-27-PThio/45-3'MM-PThio (dsDNA)
DNA 1: CCGTCGCAGCCGTCCAACCAACTACAC
DNA 2: GGACGGCATTGGATCGATCTGTAGTTGGTTGGACGGCTGCGACGG
modifications: primer: tCo at position 25, Sp phosphorothioate at the 3'-terminal linkage; template: phosphorothioate at the 3'-terminal linkage
[3]
  Kd: 0.0007 ± 0.0001 µM

B3: tCo-27-PThio/45-BMM-PThio (dsDNA)
DNA 1: CCGTCGCAGCCGTCCAACCAACTACAC
DNA 2: B2 DNA 2 with C19G, T20A
modifications: primer: tCo at position 25, Sp phosphorothioate at the 3'-terminal linkage; template: phosphorothioate at the 3'-terminal linkage
[4]
  Kd: ~0.0005 µM

B4: tCo-27-PThio (ssDNA)
DNA: CCGTCGCAGCCGTCCAACCAACTACAC
modifications: tCo (1,3-diaza-2-oxophenoxazine, C analog) at position 25; Sp phosphorothioate at the 3'-terminal linkage
[5]
  Kd: ~0.06 µM
